In assay [1] the target is YFP-tagged murine Syx S806A (mouse) (UniProt Q66T02). In words: co-IP.
Assay [2] concerns the target Mupp1 (UniProt O75970). In words: co-IP with anti-GFP, Mupp1 blot. The settings on record: reference: wild-type YFP-Syx; sites S806.

Chain of UniProt Q66T02 (Q66T02 whole entry S806A): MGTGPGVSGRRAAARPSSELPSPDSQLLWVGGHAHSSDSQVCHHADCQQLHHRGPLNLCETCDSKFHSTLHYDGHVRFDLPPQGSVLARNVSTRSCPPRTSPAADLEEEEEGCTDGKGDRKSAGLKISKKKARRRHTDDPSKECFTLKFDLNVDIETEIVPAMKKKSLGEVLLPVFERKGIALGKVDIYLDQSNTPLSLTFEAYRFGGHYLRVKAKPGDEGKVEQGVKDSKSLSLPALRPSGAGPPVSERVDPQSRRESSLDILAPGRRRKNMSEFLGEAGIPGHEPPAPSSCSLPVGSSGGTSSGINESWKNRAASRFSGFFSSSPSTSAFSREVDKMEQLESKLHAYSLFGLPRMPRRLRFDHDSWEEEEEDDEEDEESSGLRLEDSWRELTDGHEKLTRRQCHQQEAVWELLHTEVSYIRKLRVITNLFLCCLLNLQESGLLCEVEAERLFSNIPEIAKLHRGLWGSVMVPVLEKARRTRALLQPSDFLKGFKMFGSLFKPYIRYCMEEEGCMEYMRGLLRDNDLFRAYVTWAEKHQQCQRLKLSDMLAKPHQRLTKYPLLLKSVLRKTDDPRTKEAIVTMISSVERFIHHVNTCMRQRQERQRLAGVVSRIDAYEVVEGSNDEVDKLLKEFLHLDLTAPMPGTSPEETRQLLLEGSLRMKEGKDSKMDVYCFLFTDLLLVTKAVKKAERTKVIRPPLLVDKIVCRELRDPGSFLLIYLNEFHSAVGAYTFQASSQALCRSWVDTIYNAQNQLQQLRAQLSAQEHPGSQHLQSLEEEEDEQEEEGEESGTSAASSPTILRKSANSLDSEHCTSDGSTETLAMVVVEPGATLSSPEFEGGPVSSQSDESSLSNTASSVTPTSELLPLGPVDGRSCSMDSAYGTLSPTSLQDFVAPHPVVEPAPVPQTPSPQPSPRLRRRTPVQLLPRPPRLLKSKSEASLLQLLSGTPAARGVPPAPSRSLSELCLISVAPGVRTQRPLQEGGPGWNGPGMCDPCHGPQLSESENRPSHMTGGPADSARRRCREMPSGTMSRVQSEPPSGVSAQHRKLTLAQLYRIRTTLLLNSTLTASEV

In turn, “Mupp1 (multiple PDZ domain protein 1), O75970 1-2070” yielded an amount of Mupp1 coimmunoprecipitated, fold of that with YFP-Syx in assay [1] of 2 fold. “Syx (murine, YFP-mSyx) (from UniProt Q66T02) YFP-Syx-S806A”: the fold change result in assay [2] was “stronger”.

The values are drawn from paper PMC3529520.
